Laboratory results from IntAct's records for PubMed 24413684.

B1: Programmed cell death protein 4 (Homo sapiens), Q53EL6 (parent)
chain: MDVENEQILNVNPADPDNLSDSLFSGDEENAGTEEIKNEINGNWISASSINEARINAKAKRRLRKNSSRDSGRGDSVSDSGSDALRSGLTVPTSPKGRLLDRRSRSGKGRGLPKKGGAGGKGVWGTPGQVYDVEEVDVKDPNYDDDQENCVYETVVLPLDERAFEKTLTPIIQEYFEHGDTNEVAEMLRDLNLGEMKSGVPVLAVSLALEGKASHREMTSKLLSDLCGTVMSTTDVEKSFDKLLKDLPELALDTPRAPQLVGQFIARAVGDGILCNTYIDSYKGTVDCVQARAALDKATVLLSMSKGGKRKDSVWGSGGGQQSVNHLVKEIDMLLKEYLLSGDISEAEHCLKELEVPHFHHELVYEAIIMVLESTGESTFKMILDLLKSLWKSSTITVDQMKRGYERIYNEIPDINLDVPHSYSVLERFVEECFQAGIISKQLRDLCPSRGRKRFVSEGDGGRLKPESY

Variants of: B1
Conditions: with if4a1_human EIF4A1, P60842
Chain of if4a1_human EIF4A1, P60842 (P60842 whole entry): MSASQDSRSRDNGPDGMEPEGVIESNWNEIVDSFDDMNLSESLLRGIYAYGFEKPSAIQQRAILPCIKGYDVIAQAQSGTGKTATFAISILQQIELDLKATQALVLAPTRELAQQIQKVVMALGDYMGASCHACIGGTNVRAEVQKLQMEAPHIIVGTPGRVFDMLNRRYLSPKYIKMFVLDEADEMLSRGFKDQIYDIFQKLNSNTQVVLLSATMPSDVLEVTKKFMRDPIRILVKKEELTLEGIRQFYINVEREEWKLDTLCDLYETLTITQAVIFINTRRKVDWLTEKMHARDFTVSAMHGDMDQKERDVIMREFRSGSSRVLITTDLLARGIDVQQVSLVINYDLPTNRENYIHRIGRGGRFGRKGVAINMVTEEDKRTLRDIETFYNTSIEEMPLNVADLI

Variant	effect of a mutation on the interaction
D418A	decreasing interaction
D253A;D418A	decreasing interaction
